Source: PMC12090352, “Strigolactones enhance apple drought resistance via the MsABI5-MsSMXL1-MsNAC022 cascade”

Target: T1, MsABI5 (Malus sieversii, UniProt A0A498IDK6 1-328+A0A540LD52:305-441, internal_change)
T1 sequence: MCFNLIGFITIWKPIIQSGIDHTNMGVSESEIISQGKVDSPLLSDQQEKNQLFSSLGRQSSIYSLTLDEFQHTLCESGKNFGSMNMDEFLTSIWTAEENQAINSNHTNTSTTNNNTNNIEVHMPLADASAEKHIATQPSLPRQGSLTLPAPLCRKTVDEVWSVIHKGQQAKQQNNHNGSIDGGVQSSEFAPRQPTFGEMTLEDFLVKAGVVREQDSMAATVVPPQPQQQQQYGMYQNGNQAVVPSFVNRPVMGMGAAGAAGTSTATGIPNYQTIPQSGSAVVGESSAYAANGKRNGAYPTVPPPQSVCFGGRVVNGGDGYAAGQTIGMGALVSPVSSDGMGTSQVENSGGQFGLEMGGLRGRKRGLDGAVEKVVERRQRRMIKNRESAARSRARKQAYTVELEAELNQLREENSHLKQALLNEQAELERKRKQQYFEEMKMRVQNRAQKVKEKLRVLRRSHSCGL
Test: EMSA; EMSA per manufacturer's instructions (Beyotime); buffer, salt, pH and temperature not stated
Details: protein: recombinant; tags: MBP (pMAL-C2X); chain copies: 2; blunt

B1: MsSMXL1 promoter P3 ACE probe (dsDNA)
DNA 1: ATGTTGATTAACGTACCACTTAGTAC
DNA 2: GTACTAAGTGGTACGTTAATCAACAT
B1: binds.

B2: MsP5CS2.2 promoter ABRE probe (dsDNA)
DNA 1: AGAAACCGACACGTCTCTCTTTTCTA
DNA 2: TAGAAAAGAGAGACGTGTCGGTTTCT
B2: binds.
